Results as given in patent publication US10513713B2, “Modified host cells having tolerance to α-olefins” (priority 2014, dated 2019).

B1: Pseudomonas putida KT2440: heterologous RND efflux pump, AcrB homolog from Pseudomonas putida KT2440 (protein, listed as Pseudomonas putida)
chain: MSKFFIDRPIFAWVIALVIMLVGALSILKLPINQYPSIAPPAIAIAVTYPGASAQTVQDTVVQVIEQQLNGIDNLRYVSSESNSDGSMTITATFEQGTNPDTAQVQVQNKLNLATPLLPQEVQQQGIRVTKAVKNFLLVIGLVSEDGSMTKDDLANYIVSNMQDPISRTAGVGDFQVFGAQYAMRIWLDPAKLNKFQLTPVDVKTAVAAQNVQVSSGQLGGLPALPGTQLNATIIGKTRLQTAEQFESILLKVNKDGSQVRLGDVAQVGLGGENYAVSAQFNGKPASGLAVKLATGANALDTAKALRETIKGLEPFFPPGVKAVFPYDTTPVVTESISGVIHTLIEAVVLVFLVMYLFLQNFRATIITTMTVPVVLLGTFGILAAAGFSINTLTMFAMVLAIGLLVDDAIVVVENVERVMSEEGLPPKEATKRSMEQIQGALVGIALVLSAVLLPMAFFGGSTGVIYRQFSITIVSAMGLSVLVALIFTPALCATMLKPLKKGEHHTAKGGFFGWFNRNFDRSVNGYERSVGAILRNKVPFLLAYALIVVGMIWLFARIPTAFLPEEDQGVLFAQVQTPAGSSAERTQVVVDQMREYLLKDEADTVSSVFTVNGFNFAGRGQSSGMAFIMLKPWDERSKENSVFALAQRAQQHFFTFRDAMVFAFAPPAVLELGNATGFDVFLQDRGGVGHEKLMEARNQFLAKAAQSKILSAVRPNGLNDEPQYQLTIDDERASALGVTIADINNTLSIALGASYVNDFIDRGRVKKVYIQGEPSARMSPEDLQKWYVRNGAGEMVPFSSFAKGEWTYGSPKLSRYNGVEAMEILGAPAPGYSTGEAMAEVERIAGELPSGIGFSWTGMSYEEKLSGSQMPALFALSVLFVFLCLAALYESWSIPIAVVLVVPLGIIGALIATSLRGLSNDVYFLVGLLTTIGLAAKNAILIVEFAKELHEQGRSLYDAAIEACRMRLRPIIMTSLAFILGVVPLTIASGAGAGSQHAIGTGVIGGMISATVLAIFWVPLFFVAVSSLFGSKEPEKDVTPENPRYEAGQ
B2: Marinobacter aqueolei EPL: heterologous RND efflux pump, AcrB homolog from Marinobacter aqueolei EPL (protein, listed as Marinobacter aqueolei)
chain: MPRFFIERPIFAWVVALMLMLGGGLAVKNLAVNQFPDVAPPAIALSVNYPGASAQTVQDTVVQVIEQQLNGLDGLRYISSESNSDGSMTIIATFEQGTDPDIAQVQVQNKLQLANPLLPEEVQRQGIRVSKYKVNFFTVFALTSPDGKYTQGDLADYIVSNIQDPVARTQGVGDFLLFGSQYAMRLWLDPEKLNSYQLTPQDVINSVRAQNVQVSAGQLGGLPTAEGVQLQATVIGKQRMKTAEEFENILLKVNPDGSQVRLADVAEVNLGNENYATTGKYNGAPAAGMALRLATGANQLETAGRVKETLAELERFLPEGVEIVFPYDTTPVVSASIETVAMTLIEAVVLVFLVMFLFLQSWRATIIPTLAVPVVLLATFGVLYAFGFTVNVMTMFAMVLAIGLLVDDAIVVVENVERLMEEEGLSPKEAAKKSMDQISGALLGIGLVISAVFLPMAFFGGSTGVIYRQFSVTIISAMSFSVLVAFIFTPALCATLLKPGDQHVRKGFFGWFNRTFDRSADRYKSGVSYLIKRKGRFMGVYLLLVVAVGFLFKGLPTAFLPDEDQGVMIVMVQLPTNATGERTEAVLAEAGNYLLEEESEVVKSVMSVRGFNFAGRGQNSGILFVDLKPFADRESFAQSVFALAGRSGARFAQIKDAIVFPIVPPAILELGNATGFDLYLKDNGAIGHHALMAATNEFISRANAAPELNMVRHNGLPDEPQYQVIIDDEKARLLQVSIADINATMSAAWGSSYVNDFLHNGRVKKVYVQGKPDSRLAPEDFDKWFVRNAQGEMVPFAAFATGEWVFGSPRLQRYQGLPATQIQGAPANGYSTGDAMAALERIAADLPQGLGLEYTGLSFEEKQAGNQAMMLYLLSILVVFLCLAALYESWSIPFAVIMLVPLGVLGAVLATMARGLSNDVFFQVGMLTTMGLAAKNAILIVEFARQLYEQEGKPLLQATAEAARLRLRPIIMTSLAFIFGVLPMAIASGASSASQHAIGTAVVGGTLAATILAIFFVPLFYVFVVGLTGKRKSADD
B3: Pseudoalteromonas haloplanktis TAC125: heterologous RND efflux pump, AcrB homolog from Pseudoalteromonas haloplanktis TAC125 (protein, listed as Pseudoalteromonas haloplanktis)
chain: MSRYFIDKPIFAWVLAIIVMLAGILAVKSLPIAQYPSIAPPAISITANYPGASAQTLEDSVTQVIEQKMKGLDGLLYMSSTSESNGSATLTLTFNADTDPDIAQVQVQNKLATATPLLPEEVQRQGVVVAKAARNFLLVLAFVSKDGSMTNIDIGDYVASNVQDIVSRVDGVGEAQLFGSQYAMRIWLDPAKLQNFKLTPNDIGAAITAQNAQVSAGQLGGMPAIAGQQLNATITAQSRLQTPEQFENILVKTNSDGSVVRLKDVARVELGGENYGVVARYNGDPAAGIGIKLASGANALDTAEGVKKALEDLKPFFPEGLDVAIPYDTTPFVSLSIEKVVHTLIEAVILVFVVMYLFLQNFRATLIPTIAVPVVLLGTFAILYTFGYSINTLTMFAMVLAIGLLVDDAIVVVENVERLMTEEKLSALDATRKSMDEIKGALVGIAMVLSAVFIPMAFFSGSTGVIYRQFSITIVSAMGLSVLVALILTPALCATLLKPSHVHDKTSFIGRFFSGFNRGFDKTNRGAQGIVGRMISQSKRYLLIYGVLVGGMVYVFSSLPTAFLPDEDQGILFNQVMLPAGSTIEQTLGVVEKVENHYLNDQAEAVGSIFTVTGFSFAGSGQNSAIGFVNLKHWDERQRDDLSVNAVAGKGMGYFSTIKEAFVFAFPPPAIVELGTANGFNMFLQDRVGLGHDELLNARNMLLGMASKSPVLAGVRPNGQEDMPELQLDIDLAKAEALGVTQTDINSTLSTAWGSRYVNDFIDRGRVKKVYMQGEADSRMVPEDLNKWYVRNNNGDMVPFAAFASSHWSYGSPRLERYNGFSAMEIQGSAAPGYSTGQAMDEMERLVKQLPNGIASEWSGISYQERSSGGQAPLLYGLSLLFVFLCLAALYESWSVPFAVMIIVPLGIFGAIMAALIGNLSNDIYLQVGLLTTIGLASKNAILIVEFAIHKMEEGLSLVDAAIAAVKLRLRPVLMTSLAFICGVVPLAIASSAGSGAQNALGISIIGGTLAASTLVVLFVPLFFVLVRKTFSSKSAVATKESE

System: E. coli DH1 ΔacrAB
Test: Survival test of heterologous efflux pump library in 1-hexene saturated atmosphere
Type: cell-based
Conditions: FIG. 7
Procedure: FIG. 7: Impact of homologous pumps on growth in presence of 1-hexene. Survival test of E. coli DH1 ΔacrAB producing either the AcrAB wild type or AcrAB homologs in a 1-hexene saturated atmosphere was performed. One dilution of cultures (10^6 cells) was spotted on agar plate. […] From left to right and from top to bottom of the picture, are culture of strains producing the pumps A. vinelandii (YP_002797425), A. vinelandii (MexF), A. vinelandii (YP_002801502), P. putida (TtgB), P. putida (NP_745594), P. putida (MexF), P. putida (NP_743067), P. aeruginosa (MexB), P. aeruginosa (NP_250708), P. aeruginosa (MexF), P. aeruginosa (NP_253065), P. fluorescens (YP_258460), P. fluorescens (YP_260376), P. fluorescens (YP_258159), P. fluorescens (YP_258289), R. metallidurans (YP_586997), R. melallidurans (YP_583276), R. metallidurans (YP_583852), M. aqueolei (YP_960752), M. aqueolei (YP_957870), P. syringae (YP_276144), P. syringae (YP_275089), P. syringae (MdtB), P. syringae (YP_273025), P. syringae (YP_273463), P. syringae (YP_272632), G. metallireducens (YP_383777), G. metallireducens (YP_384620), G. metallireducens (YP_385464), G. metallireducens (YP_384608), G. metallireducens (YP_386066), B. pertussis (NP_880739), D. vulgaris (YP_009662), S. putrefaciens (YP_001181626), A. borkumensis (YP_692684), B. borkumensis (YP_694242), P. haloplanktis (AcrB), S. halifaxensis (YP_001672433), S. halifaxensis (YP_001673423), S. halifaxensis (YP_001674385), E. coli (AcrEF), E. coli (AcrAB), E. coli (AcrD).
An existing library of heterologous efflux pumps in E. coli (Dunlop et al. 2011) was used to test if another pump may provide better tolerance to 1-hexene than the native E. coli AcrAB-TolC system. Using the agar plate-based method, this strain library constructed in a DH1 ΔacrAB background was tested and the survival compared in presence of 1-hexene relative to the strain expressing an equivalent plasmid-borne copy of the native acrAB genes.
To test the heterologous efflux pump library, the same method was used. […]

Molecule	tolerance to 1-hexene relative to the native E. coli acrAB-expressing strain
B1	equivalent tolerance
B2	equivalent tolerance
B3	equivalent tolerance
